Laboratory results reported in patent US20210139548A1 (published 2021).
*1 amine or outer side, *2 acyl side, *3 side chain or, on linkers, in order; H or OH if unused. Side-chain parts run from the residue outwards. The star is where a group is joined. C18 diacid = O=C(O)CCCCCCCCCCCCCCCCC(=O)*; γGlu = O=C(O)[C@H](CCC(=O)[*:2])N[*:1]; Isovaleryl = CC(C)CC(=O)*; AEEA = NCCOCCOCC(=O)O

T1: human neuropeptide Y2 receptor (human, UniProt P49146 1-381)
T1 construct: whole, on cells; also called hNPY2 receptor; hNPY2-R
T1 sequence (looked up): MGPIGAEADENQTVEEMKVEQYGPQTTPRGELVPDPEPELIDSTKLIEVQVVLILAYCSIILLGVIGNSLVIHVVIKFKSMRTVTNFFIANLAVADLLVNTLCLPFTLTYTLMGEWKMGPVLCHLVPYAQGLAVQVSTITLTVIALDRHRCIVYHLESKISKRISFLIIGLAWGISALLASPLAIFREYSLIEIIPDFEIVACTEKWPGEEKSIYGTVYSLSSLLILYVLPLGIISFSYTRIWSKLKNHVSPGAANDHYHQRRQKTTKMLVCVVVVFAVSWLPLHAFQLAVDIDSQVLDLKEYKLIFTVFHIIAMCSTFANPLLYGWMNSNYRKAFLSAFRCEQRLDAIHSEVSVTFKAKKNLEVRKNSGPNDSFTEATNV

B1: Compound 132 (peptide)
peptide: Isovaleryl-APEK([AEEA-AEEA-γGlu-C18 diacid])PEEDASPEELQKYYVTLRHYYNWLTRQRY-NH2
SMILES: CC(C)CC(=O)N[C@@H](C)C(=O)N1CCC[C@H]1C(=O)N[C@@H](CCC(=O)O)C(=O)N[C@@H](CCCCNC(=O)COCCOCCNC(=O)COCCOCCNC(=O)CC[C@H](NC(=O)CCCCCCCCCCCCCCCCC(=O)O)C(=O)O)C(=O)N1CCC[C@H]1C(=O)N[C@@H](CCC(=O)O)C(=O)N[C@@H](CCC(=O)O)C(=O)N[C@@H](CC(=O)O)C(=O)N[C@@H](C)C(=O)N[C@@H](CO)C(=O)N1CCC[C@H]1C(=O)N[C@@H](CCC(=O)O)C(=O)N[C@@H](CCC(=O)O)C(=O)N[C@@H](CC(C)C)C(=O)N[C@@H](CCC(N)=O)C(=O)N[C@@H](CCCCN)C(=O)N[C@@H](Cc1ccc(O)cc1)C(=O)N[C@@H](Cc1ccc(O)cc1)C(=O)N[C@H](C(=O)N[C@H](C(=O)N[C@@H](CC(C)C)C(=O)N[C@@H](CCCNC(=N)N)C(=O)N[C@@H](Cc1c[nH]cn1)C(=O)N[C@@H](Cc1ccc(O)cc1)C(=O)N[C@@H](Cc1ccc(O)cc1)C(=O)N[C@@H](CC(N)=O)C(=O)N[C@@H](Cc1c[nH]c2ccccc12)C(=O)N[C@@H](CC(C)C)C(=O)N[C@H](C(=O)N[C@@H](CCCNC(=N)N)C(=O)N[C@@H](CCC(N)=O)C(=O)N[C@@H](CCCNC(=N)N)C(=O)N[C@@H](Cc1ccc(O)cc1)C(N)=O)[C@@H](C)O)[C@@H](C)O)C(C)C
B2: Compound 133 (peptide)
peptide: Isovaleryl-APEK([AEEA-AEEA-γGlu-C18 diacid])PEEDASPEEVQRYYVELRHYYNWLTRQRY-NH2
SMILES: CC(C)CC(=O)N[C@@H](C)C(=O)N1CCC[C@H]1C(=O)N[C@@H](CCC(=O)O)C(=O)N[C@@H](CCCCNC(=O)COCCOCCNC(=O)COCCOCCNC(=O)CC[C@H](NC(=O)CCCCCCCCCCCCCCCCC(=O)O)C(=O)O)C(=O)N1CCC[C@H]1C(=O)N[C@@H](CCC(=O)O)C(=O)N[C@@H](CCC(=O)O)C(=O)N[C@@H](CC(=O)O)C(=O)N[C@@H](C)C(=O)N[C@@H](CO)C(=O)N1CCC[C@H]1C(=O)N[C@@H](CCC(=O)O)C(=O)N[C@@H](CCC(=O)O)C(=O)N[C@H](C(=O)N[C@@H](CCC(N)=O)C(=O)N[C@@H](CCCNC(=N)N)C(=O)N[C@@H](Cc1ccc(O)cc1)C(=O)N[C@@H](Cc1ccc(O)cc1)C(=O)N[C@H](C(=O)N[C@@H](CCC(=O)O)C(=O)N[C@@H](CC(C)C)C(=O)N[C@@H](CCCNC(=N)N)C(=O)N[C@@H](Cc1c[nH]cn1)C(=O)N[C@@H](Cc1ccc(O)cc1)C(=O)N[C@@H](Cc1ccc(O)cc1)C(=O)N[C@@H](CC(N)=O)C(=O)N[C@@H](Cc1c[nH]c2ccccc12)C(=O)N[C@@H](CC(C)C)C(=O)N[C@H](C(=O)N[C@@H](CCCNC(=N)N)C(=O)N[C@@H](CCC(N)=O)C(=O)N[C@@H](CCCNC(=N)N)C(=O)N[C@@H](Cc1ccc(O)cc1)C(N)=O)[C@@H](C)O)C(C)C)C(C)C
B3: Compound 134 (peptide)
peptide: Isovaleryl-APEK([AEEA-AEEA-γGlu-C18 diacid])PEEDASPEEIQRYYTELRHYYNWLTRQRY-NH2
SMILES: CC[C@H](C)[C@H](NC(=O)[C@H](CCC(=O)O)NC(=O)[C@H](CCC(=O)O)NC(=O)[C@@H]1CCCN1C(=O)[C@H](CO)NC(=O)[C@H](C)NC(=O)[C@H](CC(=O)O)NC(=O)[C@H](CCC(=O)O)NC(=O)[C@H](CCC(=O)O)NC(=O)[C@@H]1CCCN1C(=O)[C@H](CCCCNC(=O)COCCOCCNC(=O)COCCOCCNC(=O)CC[C@H](NC(=O)CCCCCCCCCCCCCCCCC(=O)O)C(=O)O)NC(=O)[C@H](CCC(=O)O)NC(=O)[C@@H]1CCCN1C(=O)[C@H](C)NC(=O)CC(C)C)C(=O)N[C@@H](CCC(N)=O)C(=O)N[C@@H](CCCNC(=N)N)C(=O)N[C@@H](Cc1ccc(O)cc1)C(=O)N[C@@H](Cc1ccc(O)cc1)C(=O)N[C@H](C(=O)N[C@@H](CCC(=O)O)C(=O)N[C@@H](CC(C)C)C(=O)N[C@@H](CCCNC(=N)N)C(=O)N[C@@H](Cc1c[nH]cn1)C(=O)N[C@@H](Cc1ccc(O)cc1)C(=O)N[C@@H](Cc1ccc(O)cc1)C(=O)N[C@@H](CC(N)=O)C(=O)N[C@@H](Cc1c[nH]c2ccccc12)C(=O)N[C@@H](CC(C)C)C(=O)N[C@H](C(=O)N[C@@H](CCCNC(=N)N)C(=O)N[C@@H](CCC(N)=O)C(=O)N[C@@H](CCCNC(=N)N)C(=O)N[C@@H](Cc1ccc(O)cc1)C(N)=O)[C@@H](C)O)[C@@H](C)O
B4: Compound 135 (peptide)
peptide: Isovaleryl-APEK([AEEA-AEEA-γGlu-C18 diacid])PEADASPEELQRYYVELRHYYNWLTRQRY-NH2
SMILES: CC(C)CC(=O)N[C@@H](C)C(=O)N1CCC[C@H]1C(=O)N[C@@H](CCC(=O)O)C(=O)N[C@@H](CCCCNC(=O)COCCOCCNC(=O)COCCOCCNC(=O)CC[C@H](NC(=O)CCCCCCCCCCCCCCCCC(=O)O)C(=O)O)C(=O)N1CCC[C@H]1C(=O)N[C@@H](CCC(=O)O)C(=O)N[C@@H](C)C(=O)N[C@@H](CC(=O)O)C(=O)N[C@@H](C)C(=O)N[C@@H](CO)C(=O)N1CCC[C@H]1C(=O)N[C@@H](CCC(=O)O)C(=O)N[C@@H](CCC(=O)O)C(=O)N[C@@H](CC(C)C)C(=O)N[C@@H](CCC(N)=O)C(=O)N[C@@H](CCCNC(=N)N)C(=O)N[C@@H](Cc1ccc(O)cc1)C(=O)N[C@@H](Cc1ccc(O)cc1)C(=O)N[C@H](C(=O)N[C@@H](CCC(=O)O)C(=O)N[C@@H](CC(C)C)C(=O)N[C@@H](CCCNC(=N)N)C(=O)N[C@@H](Cc1c[nH]cn1)C(=O)N[C@@H](Cc1ccc(O)cc1)C(=O)N[C@@H](Cc1ccc(O)cc1)C(=O)N[C@@H](CC(N)=O)C(=O)N[C@@H](Cc1c[nH]c2ccccc12)C(=O)N[C@@H](CC(C)C)C(=O)N[C@H](C(=O)N[C@@H](CCCNC(=N)N)C(=O)N[C@@H](CCC(N)=O)C(=O)N[C@@H](CCCNC(=N)N)C(=O)N[C@@H](Cc1ccc(O)cc1)C(N)=O)[C@@H](C)O)C(C)C
B5: Compound 136 (peptide)
peptide: Isovaleryl-APEK([AEEA-AEEA-γGlu-C18 diacid])PEADSSPEELQRYYVSLRHYYNWLTRQRY-NH2
SMILES: CC(C)CC(=O)N[C@@H](C)C(=O)N1CCC[C@H]1C(=O)N[C@@H](CCC(=O)O)C(=O)N[C@@H](CCCCNC(=O)COCCOCCNC(=O)COCCOCCNC(=O)CC[C@H](NC(=O)CCCCCCCCCCCCCCCCC(=O)O)C(=O)O)C(=O)N1CCC[C@H]1C(=O)N[C@@H](CCC(=O)O)C(=O)N[C@@H](C)C(=O)N[C@@H](CC(=O)O)C(=O)N[C@@H](CO)C(=O)N[C@@H](CO)C(=O)N1CCC[C@H]1C(=O)N[C@@H](CCC(=O)O)C(=O)N[C@@H](CCC(=O)O)C(=O)N[C@@H](CC(C)C)C(=O)N[C@@H](CCC(N)=O)C(=O)N[C@@H](CCCNC(=N)N)C(=O)N[C@@H](Cc1ccc(O)cc1)C(=O)N[C@@H](Cc1ccc(O)cc1)C(=O)N[C@H](C(=O)N[C@@H](CO)C(=O)N[C@@H](CC(C)C)C(=O)N[C@@H](CCCNC(=N)N)C(=O)N[C@@H](Cc1c[nH]cn1)C(=O)N[C@@H](Cc1ccc(O)cc1)C(=O)N[C@@H](Cc1ccc(O)cc1)C(=O)N[C@@H](CC(N)=O)C(=O)N[C@@H](Cc1c[nH]c2ccccc12)C(=O)N[C@@H](CC(C)C)C(=O)N[C@H](C(=O)N[C@@H](CCCNC(=N)N)C(=O)N[C@@H](CCC(N)=O)C(=O)N[C@@H](CCCNC(=N)N)C(=O)N[C@@H](Cc1ccc(O)cc1)C(N)=O)[C@@H](C)O)C(C)C
B6: Compound 138 (peptide)
peptide: Isovaleryl-APAK([AEEA-AEEA-γGlu-C18 diacid])PEEDASPEELQQYYVSLRHYYNWLTRQRY-NH2
SMILES: CC(C)CC(=O)N[C@@H](C)C(=O)N1CCC[C@H]1C(=O)N[C@@H](C)C(=O)N[C@@H](CCCCNC(=O)COCCOCCNC(=O)COCCOCCNC(=O)CC[C@H](NC(=O)CCCCCCCCCCCCCCCCC(=O)O)C(=O)O)C(=O)N1CCC[C@H]1C(=O)N[C@@H](CCC(=O)O)C(=O)N[C@@H](CCC(=O)O)C(=O)N[C@@H](CC(=O)O)C(=O)N[C@@H](C)C(=O)N[C@@H](CO)C(=O)N1CCC[C@H]1C(=O)N[C@@H](CCC(=O)O)C(=O)N[C@@H](CCC(=O)O)C(=O)N[C@@H](CC(C)C)C(=O)N[C@@H](CCC(N)=O)C(=O)N[C@@H](CCC(N)=O)C(=O)N[C@@H](Cc1ccc(O)cc1)C(=O)N[C@@H](Cc1ccc(O)cc1)C(=O)N[C@H](C(=O)N[C@@H](CO)C(=O)N[C@@H](CC(C)C)C(=O)N[C@@H](CCCNC(=N)N)C(=O)N[C@@H](Cc1c[nH]cn1)C(=O)N[C@@H](Cc1ccc(O)cc1)C(=O)N[C@@H](Cc1ccc(O)cc1)C(=O)N[C@@H](CC(N)=O)C(=O)N[C@@H](Cc1c[nH]c2ccccc12)C(=O)N[C@@H](CC(C)C)C(=O)N[C@H](C(=O)N[C@@H](CCCNC(=N)N)C(=O)N[C@@H](CCC(N)=O)C(=O)N[C@@H](CCCNC(=N)N)C(=O)N[C@@H](Cc1ccc(O)cc1)C(N)=O)[C@@H](C)O)C(C)C

target: T1, human neuropeptide Y2 receptor; experiment: radioligand competition (125I-PYY(1-36)), hNPY2R membranes
Summary of the method: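 Commercial human Y2 receptor membranes (0.5 μg protein/well) were incubated with peptide for 2 h at room temperature in 50 mM HEPES, 5 mM MgCl₂, 1 mM CaCl₂, pH 7.4, with 0.2% ovalbumin. Bound radioligand was separated on PEI-soaked GF/C filters and counted by scintillation, and IC₅₀ came from nonlinear sigmoidal regression.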

| Binder | Ki |
| --- | --- |
| B1 | 1.18 nM |
| B2 | 2.31 nM |
| B3 | 1.17 nM |
| B4 | 1.31 nM |
| B5 | 0.89 nM |
| B6 | 1.42 nM |
